Legend:
[1] = target: T1, peptide I, hproBDNF(50-63)
T1 chain: KAGSRGLTSLADTF

[2] = target: T2, peptide II, hSREBP-2(504-530)
T2 chain: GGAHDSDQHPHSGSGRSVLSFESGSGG

[3] = target: T3, peptide III, hSKI-1(174-191)
T3 chain: WHATGRHSSRRLLRAIPR

[4] = target: T4, peptide IV, hSKI-1 (174-188+LE)
T4 chain: WHATGRHSSRRLLRALE

[5] = target: T5, peptide IX, hSKI-1 (128-142)
T5 chain: PQRKVFRSLKYAESD

[6] = target: T6, peptide V, hSKI-1 (182-188+LE)
T6 chain: SRRLLRALE

[7] = target: T7, peptide VI, hSKI-1 (156-172)
T7 chain: WQSSRPLRRASLSLGSG

[8] = target: T8, peptide VII, hSKI-1 (187-201)
T8 chain: RAIPRQVAQTLQADV

[9] = target: T9, peptide VIII, hSKI-1 (128-136)
T9 chain: PQRKVFRSL

[10] = target: soya bean trypsin inhibitor
[11] = target: T10, peptide (iv) hSKI-1 (181-188+Glu)
T10 chain: SSRRLLRAIE

[12] = target: T11, peptide (x) SREBP-2 10 mer
T11 chain: SGSGRSVLSFES

[13] = target: T12, peptide X, Q-hSKI-1 (132-142): Abz-VFRSLKYAESD-Y(NO2)-A
T12 chain: XVFRSLKYAESDXA

[14] = target: T13, peptide XI, Q-hSKI-1 (134-142): Abz-RSLKYAESD-Y(NO2)-A
T13 chain: XRSLKYAESDXA

[15] = substrate: CC(C)C[C@H](NC(=O)[C@H](CO)NC(=O)[C@H](CCCNC(=N)N)NC(=O)[C@H](Cc1ccccc1)NC(=O)[C@@H](NC(=O)c1ccccc1N)C(C)C)C(=O)N[C@@H](CCCCN)C(=O)N[C@@H](Cc1ccc(O)cc1)C(=O)N[C@@H](C)C(=O)N[C@@H](CCC(=O)O)C(=O)N[C@@H](CO)C(=O)N[C@@H](CC(=O)O)C(=O)N[C@@H](Cc1ccc(O)c([N+](=O)[O-])c1)C(=O)N[C@@H](C)C(N)=O; test: Hydrolysis of quenched fluorogenic substrates by shed-hSKI-1; assay type: biochemical, human; conditions: other: shed-hSKI-1; averages of duplicate assays; pH 6.5; 37.0 °C
Experimental: (§1) For digestions, each peptide was typically reacted at 37° C. with 10 μl of the concentrated enzyme preparation in a buffer consisting of 50 mM HEPES (N-2-Hydroxyethyl piperazine-N′-2 EthaneSulfonic acid) (ICN Biomedicals Inc), 50 mM MES (2-[N-Morpholino] EthaneSulfonic acid) (Sigma Chem Co.), and 3 mM Ca^2+-acetate (pH 6.5). The digestion products were separated by RP-HPLC on a Beckman 5 μm Ultrasphere C18 column (0.2×25 cm) and eluted with a 1%/min linear gradient of aqueous 0.1% TFA/CH3CN ([…]) at a flow rate of 1 ml/min. The collected peptides were characterized by mass spectrometry and amino acid composition, which was also used to quantitate the amount of various substrates and products. The digestions of the quenched fluorogenic peptides were analyzed by RP-HPLC using a dual UV (210 nm) and fluorescence (excitation and emission wavelengths of 320 and 420 nm, respectively) detector (Rainin).
(§2) Km(app), Vmax(app) and Ki(app) determinations—Following digestion reactions with increasing substrate concentrations, the products were separated by RP-HPLC. The rate of substrate hydrolysis was obtained from the integrated peak areas of the chromatograms. Km(app) and Vmax(app) values were estimated using nonlinear regression analysis (Enzfitter software; Elsevier Biosoft, Cambridge, UK) of plots of the hydrolysis rate vs the substrate concentration. […] The Ki(app) values were estimated from Dixon plots as described (16). For the two quenched peptides, kinetic parameters were determined as described (17).

[16] = substrate: CC(C)C[C@H](NC(=O)[C@H](CO)NC(=O)[C@H](CCCNC(=N)N)NC(=O)c1ccccc1N)C(=O)N[C@@H](CCCCN)C(=O)N[C@@H](Cc1ccc(O)cc1)C(=O)N[C@@H](C)C(=O)N[C@@H](CCC(=O)O)C(=O)N[C@@H](CO)C(=O)N[C@@H](CC(=O)O)C(=O)N[C@@H](Cc1ccc(O)c([N+](=O)[O-])c1)C(=O)N[C@@H](C)C(N)=O; test: as above; assay type: biochemical, human; conditions: other: shed-hSKI-1; averages of duplicate assays; pH 6.5; 37.0 °C
Experimental: as §1, §2

B1: BTMD-SKI-1 (protein)
chain: RAIPRQVAQTLQADVLWQMGYTGANVRVAVFDTGLSEKHPHFKNVKERTNWTNERTLDDGLGHGTFVAGVIASMRECQGFAPDAELHIFRVFTNNQVSYTSWFLDAFNYAILKKIDVLNLSIGGPDFMDHPFVDKVWELTANNVIMVSAIGNDGPLYGTLNNPADQMDVIGVGGIDFEDNIARFSSRGMTTWELPGGYGRMKPDIVTYGAGVRGSGVKGGCRALSGTSVASPVVAGAVTLLVSTVQKRELVNPASMKQALIASARRLPGVNMFEQGHGKLDLLRAYQILNSYKPQASLSPSYIDLTECPYMWPYCSQPIYYGGMPTVVNVTILNGMGVTGRIVDKPDWQPYLPQNGDNIEVAFSYSSVLWPWSGYLAISISVTKKAASWEGIAQGHVMITVASPAETESKNGAEQTSTVKLPIKVKIIPTPPRSKRVLWDQYHNLRYPPGYFPRDNLRMKNDPLDWNGDHIHTNFRDMYQHLRSMGYFVEVLGAPFTCFDASQYGTLLMVDSEEEYFPEEIAKLRRDVDNGLSLVIFSDWYNTSVMRKVKFYDENTRQWWMPDTGGANIPALNELLSVWNMGFSDGLYEGEFTLANHDMYYASGCSIAKFPEDGVVITQTFKDQGLEVLKQETAVVENVPILGLYQIPAEGGGRIVLYGDSNCLDDSHRQKDCFWLLDALLQYTSYGVTPPSLSHSGNRQRPPSGAGSVTPERMEGNHLHRYSKVLEAHLGDPKPRPLPACPRLSWAKPQPLNETAPSNLWKHQKLLSIDLDKVVLPNFRSNRPQVRPLSPGESGAWDIPGGIMPGRYNQEHHHHHH
Q: For B1, which Hydrolysis of SREBP-2 peptide (% of control) at 0.01 mM cystatin (cystatin) is on record?
A: 100 % of control

Q: And the Km(app) [1]?
A: 169 µM

Q: What about the Vmax(app) [1] of the same protein?
A: 0.4 nmol/h

Q: And the Vmax(app)/Km(app) [1]?
A: 0.002 h^-1L^-1

Q: And the “cleavage of synthetic peptide (RP-HPLC, MALDI-TOF)” value [1]?
A: The expected cleavages were confirmed and did not occur using WT-/empty vector-derived media

Q: And the Km(app) [2]?
A: 124 µM

Q: What about the Vmax(app) [2] of the same protein?
A: 0.5 nmol/h

Q: And the Vmax(app)/Km(app) [2]?
A: 0.004 h^-1L^-1

Q: What about the “cleavage of synthetic peptide (RP-HPLC, MALDI-TOF)” value [2] of the same protein?
A: The expected cleavages were confirmed and did not occur using WT-/empty vector-derived media

Q: And the “cleavage of synthetic peptide (RP-HPLC, mass spectrometry)” value [3]?
A: the only one with detectable cleavage by SKI-1-containing concentrated medium ... was peptide III

Q: What about the Km(app) [4] of the same protein?
A: 17 µM

Q: And the Vmax(app) [4]?
A: 0.4 nmol/h

Q: What about the Vmax(app)/Km(app) [4] of the same protein?
A: 0.023 h^-1L^-1

Q: What about the “Vmax(app)/Km(app) relative to peptides I and II” value [4] of the same protein?
A: 5-10-fold higher than those obtained with peptides I and II

Q: And the “cleavage of synthetic peptide” value [4]?
A: this change significantly improved the processing of these peptides

Q: And the “cleavage of synthetic peptide at K137↓” value [5]?
A: the PQRKVFRSLK^137↓YAESD (SEQ. ID. NO. 45) cleavage was only seen in SKI-1-containing medium

Q: What about the Km(app) [6] of the same protein?
A: 109 µM

Q: And the Vmax(app) [6]?
A: 1.1 nmol/h

Q: What about the Vmax(app)/Km(app) [6] of the same protein?
A: 0.01 h^-1L^-1

Q: What about the “catalytic efficiency relative to peptide IV” value [6] of the same protein?
A: caused a 4-fold reduction in catalytic efficiency

Q: What about the “cleavage of synthetic peptide” value [6] of the same protein?
A: this change significantly improved the processing of these peptides

Q: What about the difference in Vmax(app)/Km(app) between peptides IV and V [6] of the same protein?
A: 2 fold

Q: And the “cleavage of synthetic peptide” value [7]?
A: ^1No cleavage detected even with a 10-fold excess of enzyme.

Q: And the “cleavage of synthetic peptide” value [8]?
A: ^1No cleavage detected even with a 10-fold excess of enzyme.

Q: What about the “cleavage of synthetic peptide” value [9] of the same protein?
A: ^2Cleavage detected but not attributable to SKI-1.

Q: And the Hydrolysis of SREBP-2 peptide (% of control) at 0.5 mg/ml SBTI [10]?
A: 100 % of control

B2: shed-hSKI-1 (Homo sapiens) (protein)
chain: RAIPRQVAQTLQADVLWQMGYTGANVRVAVFDTGLSEKHPHFKNVKERTNWTNERTLDDGLGHGTFVAGVIASMRECQGFAPDAELHIFRVFTNNQVSYTSWFLDAFNYAILKKIDVLNLSIGGPDFMDHPFVDKVWELTANNVIMVSAIGNDGPLYGTLNNPADQMDVIGVGGIDFEDNIARFSSRGMTTWELPGGYGRMKPDIVTYGAGVRGSGVKGGCRALSGTSVASPVVAGAVTLLVSTVQKRELVNPASMKQALIASARRLPGVNMFEQGHGKLDLLRAYQILNSYKPQASLSPSYIDLTECPYMWPYCSQPIYYGGMPTVVNVTILNGMGVTGRIVDKPDWQPYLPQNGDNIEVAFSYSSVLWPWSGYLAISISVTKKAASWEGIAQGHVMITVASPAETESKNGAEQTSTVKLPIKVKIIPTPPRSKRVLWDQYHNLRYPPGYFPRDNLRMKNDPLDWNGDHIHTNFRDMYQHLRSMGYFVEVLGAPFTCFDASQYGTLLMVDSEEEYFPEEIAKLRRDVDNGLSLVIFSDWYNTSVMRKVKFYDENTRQWWMPDTGGANIPALNELLSVWNMGFSDGLYEGEFTLANHDMYYASGCSIAKFPEDGVVITQTFKDQGLEVLKQETAVVENVPILGLYQIPAEGGGRIVLYGDSNCLDDSHRQKDCFWLLDALLQYTSYGVTPPSLSHSGNRQRPPSGAGSVTPERMEGNHLHRYSKVLEAHLGDPKPRPLPACPRLSWAKPQPLNETAPSNLWKHQKLLSIDLDKVVLPNFRSNRPQVRPLSPGESGAWDIPGGIMPGRYNQEV
notes: SKI-1 is further processed to remove the transmembrane domain that keeps it integrated in the ER membrane, which generates a SKI-1 soluble form; made in house; host or cells: HK293 cells stably transfected with full-length hSKI-1 in pcDNA3; shed enzyme in the medium
Q: What does the source list for B2?
A: cleavage of synthetic peptide (iv): efficiently cleaved [11]: only the peptides (iii), (iv), (vii), (viii) (ix) and (x) are efficiently cleaved by the recombinant SKI-1; cleavage of synthetic peptide (x): efficiently cleaved [12]: only the peptides (iii), (iv), (vii), (viii) (ix) and (x) are efficiently cleaved by the recombinant SKI-1; cleavage of synthetic peptide (viii): efficiently cleaved [1]: only the peptides (iii), (iv), (vii), (viii) (ix) and (x) are efficiently cleaved by the recombinant SKI-1; cleavage of synthetic peptide (ix): efficiently cleaved [2]: only the peptides (iii), (iv), (vii), (viii) (ix) and (x) are efficiently cleaved by the recombinant SKI-1; cleavage of synthetic peptide (ii): not efficiently cleaved [3]: only the peptides (iii), (iv), (vii), (viii) (ix) and (x) are efficiently cleaved by the recombinant SKI-1; cleavage of synthetic peptide (iii): efficiently cleaved [4]: only the peptides (iii), (iv), (vii), (viii) (ix) and (x) are efficiently cleaved by the recombinant SKI-1; cleavage of synthetic peptide (vii): efficiently cleaved [5]: only the peptides (iii), (iv), (vii), (viii) (ix) and (x) are efficiently cleaved by the recombinant SKI-1; cleavage of synthetic peptide (i): not efficiently cleaved [7]: only the peptides (iii), (iv), (vii), (viii) (ix) and (x) are efficiently cleaved by the recombinant SKI-1; cleavage of synthetic peptide (v): not efficiently cleaved [8]: only the peptides (iii), (iv), (vii), (viii) (ix) and (x) are efficiently cleaved by the recombinant SKI-1; cleavage of synthetic peptide (vi): not efficiently cleaved [9]: only the peptides (iii), (iv), (vii), (viii) (ix) and (x) are efficiently cleaved by the recombinant SKI-1; kinetic parameters (Vmax/Km) relative to quenched peptide (b) [13]: this peptide is 6-fold more efficient that the nearest candidate quenched peptide (b); cleavage of quenched fluorogenic peptide (HPLC with UV and fluorescence detection) [14]: clearly revealed a single site of cleavage in peptides (a) and (b); Km [15]: 31.3 µM; Vmax [15]: 0.567 µmol/min; Km [16]: 8.7 µM; Vmax [16]: 0.948 µmol/min
